Data taken from patent publication US20230189818A1, “RNA-BASED CONTROL OF BOTRYTIS” (priority 2021, published 2023).

Assays:
[1] = system: Botrytis cinerea isolate (B05.10); test: Detached leaf assay (tomato leaflets, lesion size); type: in vivo; settings: five days post inoculation, vs untreated inoculated control
Summary of the method: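 Tomato (Brandywine) detached lateral leaflets were sprayed with treatment in 0.03% Silwet L-77 24 h before inoculation. Two 10 μL drops of 1×10^5 conidia/mL in 7% grape juice were applied per leaflet, which was then incubated at 23 °C, ~75% RH, 12/12 light. Lesion diameter was measured at 5 DPI against the untreated inoculated control, ten replicates.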

[2] = system: Botrytis; test: Open-air field trial on strawberry (Example 4.1, AUDPC of % disease severity); type: in vivo, Botrytis cinerea; settings: FIG. 6
Protocol: RNAi compositions, each containing a dsRNA comprising a trigger sequence (GS349 or GS730) described herein were evaluated for ability to control botrytis on strawberry in open-air field trials. Non-formulated (dissolved in water) GS349 and GS730 were each tank mixed with water and the standard adjuvant Silwet L-77 0.1% v/v. GS349 was tested at concentrations of 25 grams of active ingredient per hectare (g ai/ha) and 50 g ai/ha and GS730 was tested at a concentration of 100 g ai/ha. Serenade ASO 85 g ai/ha, a standard biological fungicide, was used as a positive control. A second positive control group was treated with alternating applications of the chemical standards Teldor Plus 750 g ai/ha, Signum 600 g ai/ha, and Switch 500 g ai/ha. The trial also included an untreated group as a negative control.
Test compositions and positive controls were sprayed onto strawberry plants in 12 applications. Plants were observed beginning 14 days after the first application and disease progress was assessed by determining the percentage of surface area of fruit that was affected by the disease (% Disease Severity). Disease severity was plotted over the length of the trial observations and area under disease progress curve (AUDPC) was calculated in order to measure the cumulative effect of the various treatments across multiple assessments. Means were separated according to Fisher's LSD, alpha (p)≤0.05.

Molecule	Average % Reduction in Lesion Size ([1]; 30 ppm)	Average % Reduction in Lesion Size ([1]; 50 ppm)	Disease control compared with the biological standard (AUDPC) ([2]; 50 g/h ai, Serenade ASO 85 g ai/ha)	Disease control compared with the chemical standard (AUDPC) ([2]; 50 g/h ai, alternating Teldor Plus, Signum, Switch)	Disease control compared with the biological standard, Serenade (AUDPC) ([2]; GS349 25 g ai/ha, GS730 100 g ai/ha, Serenade ASO 85 g ai/ha)	Control of Botrytis vs. the untreated control (AUDPC) ([2]; non-formulated, Silwet L-77 0.1% v/v, 12 applications, GS349 25 and 50 g ai/ha, GS730 100 g ai/ha)
GS2280: dsRNA trigger targeting B. cinerea Bcmcm4 (XM_024696090.1); trigger SEQ ID NO 21, RNA 33, reverse complement 45 (nucleic acid, listed as Botrytis cinerea) sense: AAUGUCCUCGUCCGGUUUGUAAAUCUCCAAACUCCAUGCAGAUUGUACACAACAGGUCUGGAUUCAUGGAUAAGCAAGUUAUCAAGCUUCAAGAAACUCCAGAUUCCGUUCCUGCUGGUCAAACACCACAUUCCGUCUCGAUGUGUGCAUAUGAUGAGUUGGUGGAUCUGUGCAAAGCUGGUGACAGAGUUGAGAUUACUGGUAUCUUCAAAGCUAGUCCAGUUCGUGUCAAUCCUCGCCAAAGAACUCUCAAAAGCAUUUAUAAAACGUACAUCGACGUUUUACACAUUCAAAAGGUUGACAAGAAAAGAAUGGGAAUUGAUGCUUCGACCGUUGAGCAAGAAAUAUCCGAUCAGUUGACAGGCAACAUUGAAGAAACUAGAAAGGUUUCUGAAGAGGAGGAAGAAAAAAUCAGAGAAACCGCUGCAAGACCCGAUAUCUACGAACUUCUAUCUCGAUCCCUCGCACCUAGUAUUUUUGAGAUGGACGAUGUUAAGAAGGGUAUCUUGCUUCAAUUAUUUGGUGGAACUAACAAGUCUUUCGAAAAAGGAGGAAGUCCAAAAUACAGAGGAGAUAUCAAUAUUCUAUUGU antisense: ACAAUAGAAUAUUGAUAUCUCCUCUGUAUUUUGGACUUCCUCCUUUUUCGAAAGACUUGUUAGUUCCACCAAAUAAUUGAAGCAAGAUACCCUUCUUAACAUCGUCCAUCUCAAAAAUACUAGGUGCGAGGGAUCGAGAUAGAAGUUCGUAGAUAUCGGGUCUUGCAGCGGUUUCUCUGAUUUUUUCUUCCUCCUCUUCAGAAACCUUUCUAGUUUCUUCAAUGUUGCCUGUCAACUGAUCGGAUAUUUCUUGCUCAACGGUCGAAGCAUCAAUUCCCAUUCUUUUCUUGUCAACCUUUUGAAUGUGUAAAACGUCGAUGUACGUUUUAUAAAUGCUUUUGAGAGUUCUUUGGCGAGGAUUGACACGAACUGGACUAGCUUUGAAGAUACCAGUAAUCUCAACUCUGUCACCAGCUUUGCACAGAUCCACCAACUCAUCAUAUGCACACAUCGAGACGGAAUGUGGUGUUUGACCAGCAGGAACGGAAUCUGGAGUUUCUUGAAGCUUGAUAACUUGCUUAUCCAUGAAUCCAGACCUGUUGUGUACAAUCUGCAUGGAGUUUGGAGAUUUACAAACCGGACGAGGACAUU	32.13%	24.08%	–	–	–	–
GS2303: dsRNA trigger targeting B. cinerea Bcded1 (XM_001550339.2); trigger SEQ ID NO 24, RNA 36, reverse complement 48 (nucleic acid, listed as Botrytis cinerea) sense: GGGCUAUAUAAGCUUUCAUCUAGGUUUUCCAAGAAACGCAUUACGAUAGACAUGUUCUCCAAAAAUCUUACUGGUCCUGCUUUCAGCAUUUCCAUGGAUCAUGAAGUCCUCCACUAUGGAAGAUUUGCAAAAUAUUUUCGACAUUGCAUUUUGCUGCAUUUCGCAUUUCUAGAUAGAAAAAAAGUGGGAUUCAUAUUCUCGAUAUUUUCUUCGUUGUCUUUUAUUCACAAGACACAUGGCAAGGGAGGAUACCAUUUGAGAGCUUGAAUUGAAGGCUUUCCUCUUACUUUUUUUAUUUUUCACAUCAUCUACGAGUGGGCGUCUUUUACGAUCAAAUCGAUAUACGACAGUGGCACAAAAUAGAAUAGGCAUUUCUCUUCUUAAAAAAGAUUUAAGGGAAGAGUUGGUGCUUGUUCUCUAUAACGCUGAUGGCAUUCGGAAGUGCUCCUGUCCAUUCAGGCUGAGACUGAGACCCAAAAUGUUGGCAGGUACGGCAGAAAGAAGUCUGCUUCAUAUGAUUGAUGGAGGAAGAAAGAAAUAUGGAAUGCGAUGGAUGAGUAAUUACUUUAAAUGAAUAUGAAAA antisense: UUUUCAUAUUCAUUUAAAGUAAUUACUCAUCCAUCGCAUUCCAUAUUUCUUUCUUCCUCCAUCAAUCAUAUGAAGCAGACUUCUUUCUGCCGUACCUGCCAACAUUUUGGGUCUCAGUCUCAGCCUGAAUGGACAGGAGCACUUCCGAAUGCCAUCAGCGUUAUAGAGAACAAGCACCAACUCUUCCCUUAAAUCUUUUUUAAGAAGAGAAAUGCCUAUUCUAUUUUGUGCCACUGUCGUAUAUCGAUUUGAUCGUAAAAGACGCCCACUCGUAGAUGAUGUGAAAAAUAAAAAAAGUAAGAGGAAAGCCUUCAAUUCAAGCUCUCAAAUGGUAUCCUCCCUUGCCAUGUGUCUUGUGAAUAAAAGACAACGAAGAAAAUAUCGAGAAUAUGAAUCCCACUUUUUUUCUAUCUAGAAAUGCGAAAUGCAGCAAAAUGCAAUGUCGAAAAUAUUUUGCAAAUCUUCCAUAGUGGAGGACUUCAUGAUCCAUGGAAAUGCUGAAAGCAGGACCAGUAAGAUUUUUGGAGAACAUGUCUAUCGUAAUGCGUUUCUUGGAAAACCUAGAUGAAAGCUUAUAUAGCCC	43.06%	26.55%	–	–	–	–
GS2297: dsRNA trigger targeting B. cinerea Bcrpb5 (XM_024693733.1); trigger SEQ ID NO 23, RNA 35, reverse complement 47 (nucleic acid, listed as Botrytis cinerea) sense: UGCACCAUCAGGUCCCGCUCAAAAGAUUAUUCCCGCUGUCGCAUCCGAGACAAGAAUCGAGACCUUCGUCGAGCAAGAUUUACUUGUCAAUAUUACACAUCAUGAAUUGGUUCCCAAGCAUGUUUUGUUAAGUAGAGAAGAGAGGGCCAAGUUGUUGUCAAGAUAUAGAUUGAAGGAUACUCAACUCCCACGUAUUCAGGCUGCGGAUCCAGUUGCAAAAUAUUUGGGAUUGAGAAGAGGGCAGGUCGUUAAGAUUAUCAGAAAGUCGGAAACUGCUGGUCGUUAUGCCAGUUACAGAUUGUGCGUAUAAUGGAGCUGGAGGGUAGAUGAUUUGGUGUUAAUAACUAGGGAGUUUCUUGGGAAAAAUUUGCAUAUUUGGGGAAGGCGUAAUAGGCUGGAAGAAAGACUGAGGAUGAGAUUGUCUAUUUUGGCUUUCCAGGAAGCAAUACUUUGAGACAUGAAAUUUGAUAUUAAAUUUCUUGUUCUGUAUAUUUCUGAUAGUUUCAGAGCUUUUCAAUAAGAUCUAUUCUACAGUUUUAAGAAUCCAGACUCACCCUUUGAGAAGCUCAUACAAAGUUCCUUCCUA antisense: UAGGAAGGAACUUUGUAUGAGCUUCUCAAAGGGUGAGUCUGGAUUCUUAAAACUGUAGAAUAGAUCUUAUUGAAAAGCUCUGAAACUAUCAGAAAUAUACAGAACAAGAAAUUUAAUAUCAAAUUUCAUGUCUCAAAGUAUUGCUUCCUGGAAAGCCAAAAUAGACAAUCUCAUCCUCAGUCUUUCUUCCAGCCUAUUACGCCUUCCCCAAAUAUGCAAAUUUUUCCCAAGAAACUCCCUAGUUAUUAACACCAAAUCAUCUACCCUCCAGCUCCAUUAUACGCACAAUCUGUAACUGGCAUAACGACCAGCAGUUUCCGACUUUCUGAUAAUCUUAACGACCUGCCCUCUUCUCAAUCCCAAAUAUUUUGCAACUGGAUCCGCAGCCUGAAUACGUGGGAGUUGAGUAUCCUUCAAUCUAUAUCUUGACAACAACUUGGCCCUCUCUUCUCUACUUAACAAAACAUGCUUGGGAACCAAUUCAUGAUGUGUAAUAUUGACAAGUAAAUCUUGCUCGACGAAGGUCUCGAUUCUUGUCUCGGAUGCGACAGCGGGAAUAAUCUUUUGAGCGGGACCUGAUGGUGCA	27.63%	24.35%	–	–	–	–
GS349: dsRNA trigger targeting B. cinerea CDC42 (XM_001545642.2); trigger SEQ ID NO 14, RNA 26, reverse complement 38 (nucleic acid, listed as Botrytis cinerea) sense: GUUGUCUUGUCUCGCUCAAGCUUGUCCUGUCUGGUCACUUUUCUUUCUGCCUGAUAAUCCAGACCUCGAAAAUAACCAAAAGAUUGGAAAUCGUUUGCUCAUCUUGCAUGCAUUAUUACUUUCCUGGAUCAAUCUCAUUCAACUCGUUCUCGUGCAUUUCAUUCAACCUCAACCCCUACUUUCAGUCAAUUCAAUUUAAUUCAAUCAUUCAAAUCUUUCAUUUCGCACACUUCACAUUCAACCAUCCUCUCUCAAUCAAAUAUCACCACCUCUCUUAUCGAACGUCAUUUUGCAUACAAUCAAUUCCUACAGACCGAGCGCAACUCGAUACAACCAUCGAAUAACUUCUCACACUUGCUUGUUGAAUUGAUUACUGAAGAAAGUGGAUUUCAAAGACCGAUUUUCCCCCUAGAUAUUCAAGAACGGCUUAUUCUUGUCUCGAGACAAAAC antisense: GUUUUGUCUCGAGACAAGAAUAAGCCGUUCUUGAAUAUCUAGGGGGAAAAUCGGUCUUUGAAAUCCACUUUCUUCAGUAAUCAAUUCAACAAGCAAGUGUGAGAAGUUAUUCGAUGGUUGUAUCGAGUUGCGCUCGGUCUGUAGGAAUUGAUUGUAUGCAAAAUGACGUUCGAUAAGAGAGGUGGUGAUAUUUGAUUGAGAGAGGAUGGUUGAAUGUGAAGUGUGCGAAAUGAAAGAUUUGAAUGAUUGAAUUAAAUUGAAUUGACUGAAAGUAGGGGUUGAGGUUGAAUGAAAUGCACGAGAACGAGUUGAAUGAGAUUGAUCCAGGAAAGUAAUAAUGCAUGCAAGAUGAGCAAACGAUUUCCAAUCUUUUGGUUAUUUUCGAGGUCUGGAUUAUCAGGCAGAAAGAAAAGUGACCAGACAGGACAAGCUUGAGCGAGACAAGACAAC	32.99%	31.80%	significantly improved control	not significantly different	not significantly different	significant control
